Source: patent US20200031807

Target: GST-histone H3 [GST: P08515]
Sequence (P08515 whole entry, looked up): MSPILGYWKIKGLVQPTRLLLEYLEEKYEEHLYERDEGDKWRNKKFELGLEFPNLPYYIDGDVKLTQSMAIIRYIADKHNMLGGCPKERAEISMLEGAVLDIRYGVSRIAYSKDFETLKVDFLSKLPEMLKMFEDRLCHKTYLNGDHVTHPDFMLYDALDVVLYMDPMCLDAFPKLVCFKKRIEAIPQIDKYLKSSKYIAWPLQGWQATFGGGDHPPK

B1: Flag-tagged AURKB protein (protein)
chain: MAQKENSYPWPYGRQTAPSGLSTLPQRVLRKEPVTPSALVLMSRSNVQPTAAPGQKVMENSSGTPDILTRRHFTIDDFEIGRPLGKGKFGNVYLAREKKSHFIVALKVLFKSQIEKEGVEHQLRREIEIQAHLHHPNILRLYNYFYDRRRIYLILEYAPRGELYKELQKSCTFDEQRTATIMEELADALMYCHGKKVIHRDIKPENLLLGLKGELKIADFGWSVHAPSLRRKTMCGTLDYLPPEMIEGRMHNEKVDLWCIGVLCYELLVGNPPFESASHNETYRRIVKVDLKFPASVPMGAQDLISKLLRHNPSERLPLAQVSAHPWVRANSRRVLPPSALQSVA
For B1, the “in vitro phosphorylation, read by western blot” value was “the Flag-AURKB protein had kinase activity and can phosphorylate histone H3”.
